For the series, the system named is hematopoiesis. The format is in vivo, mouse. The method, then:
The mice received intravenous injection of 670 pmol/20 g miR-26a or control chimera daily for 3 days. 150 mg/kg 5-FU was injected on day 2 of the chimera treatment. FIG. 2A is a graph showing the numbers of white blood cells (WBC) 10 days after 5-FU treatment. Data (mean+s.d.) were pooled from two experiments, involving a total of 6 mice per group. FIG. 2B is a graph showing the number of bone marrow (BM) cells 10 days after 5-FU treatment. Data (mean+s.d.) were pooled from two experiments, involving a total of 6 mice per group. FIG. 2C is (left) a representative picture of LSK population 5 days after 5-FU treatment with or without miR-26a chimera treatment; and (right) a graph showing the percentages of LSK population. Data (mean+s.d.) were pooled from two experiments, involving a total of 6 mice per group. FIG. 2D is a series of graphs showing apoptosis. Left, representative picture of Annexin V^+ in LSK population 5 days after 5-FU treatment. Right, the percentages of Annexin V^+ in the LSK population. Data (mean+s.d.) were pooled from two experiments, involving a total of 6 mice per group. *P<0.05, **P<0.01. FIG. 2E is a picture showing a putative miR-26a target site in the 3′UTR of mouse Bak1 (SEQ ID NO:19). Base pairs CU-GA -UACUUGAA (SEQ ID NO:20) of the Bak Sequence and its complementary basepairs are the sites with highly probability preferential conservation between mammals. The miR-26a sequence depicted is SEQ ID NO:21. FIG. 2F is a graph showing relative luciferase activity of reporter constructs containing the wild-type or mutant (mut) 3′-UTR of mouse Bak1 in HEK293 cells co-transfected with either miR-26a precursor (OE), miR-26a TuD inhibitor (TuD), or negative control (ctrl). Data were pooled from two experiments. FIG. 2G is a graph showing relative expression level of Bak1 mRNA in LSK population 5 days after 5-FU treatment. Data (mean+s.d.) were pooled from two experiments, involving a total of 6 mice per group. FIG. 2H is a graph showing that targeted mutation of the Bak1 gene increased survival of LSK in BM at day 5 after 150 mg/kg 5-FU treatments. Data shown are percent of LSK in BM (n=3 for Bak1^+/+ mice and n=4 for Bak1^−/− mice). […] of Bak1^+/+ and Bak1^−/− LSK in BM. Data shown percent of untreated, after normalization using means of LSK % from BM of two untreated Bak1^+/+ and Bak1^−/− mice as 100%. FIG. 2J is a graph showing the numbers of WBC 10 days after 150 mg/kg 5-FU treatments between Bak1^−/− mice and wild type mice. Data (mean+s.d.) were pooled from two experiments, involving a total of 7 mice per group. *P<0.05, **P<0.01.
For xenograft models, the NSG mice and BALB/c mice were subcutaneously injected with 2×10^6 viable MDA-MB-231 cells and TUBO cells in their right hind limbs, respectively. After the tumor grew to 1 cm in diameter, mice were randomly divided into the groups for each treatment. For no treatment control, 100 μl saline with 1% mouse serum was intravenously injected through tail vein. […] Tumor sizes were measured in two dimensions every 3 days. Tumor volume (V) was calculated using the following formula: V=(½) S^2×L (S. the shortest dimension; L, the longest dimension). Animals were euthanized when the tumor size was over 2 cm diameters, tumor ulcerated, or became necrotic. For chimera treatment in normal mice, C57BL/6 mice were treated with miR-26a chimera (670 pmol/20 g) everyday for 3 days by intravenous injection. At day 2, 150 mg/kg 5-FU and/or 120 mg/kg carboplatin was injected together with the chimera. Peripheral bloods were collected at day 5 and day 10 after the 5-FU treatment. Complete blood counts were measured by Hemavet 950FS (Drew Scientific, Miami Lakes, Fla., USA).
For aptamer binding assay, streptavidin-APC (Cat #554067) […] Bioscience, San Jose, Calif., USA) was used for detecting the biotin-conjugated aptamers by flow cytometry. Other cell targeting aptamer specific for Ramos cells (28) was used for negative control. […]

As to `O=c1[nH]cc(F)c(=O)[nH]1` [5-FU, 5-fluorouracil, reference compound], under “C57BL/6, mouse, in vivo, 5 days”, the “reduction in the LSK population” value was about 10 fold. In addition, under “mouse, in vivo”, the “Bak1 expression in LSK cells” value is reported as “massively induced” and the “percent of apoptotic (Annexin V+) LSK” value is “massively increased”.

B1: miR-26a chimera: mouse c-Kit DNA aptamer-C3-passenger RNA, passenger RNA-TEG-cholesterol and miR-26a-5p guide strand annealed (SEQ ID NO:6/7, 8, 9) (nucleic acid)
chain 1: GCTCAACGCGGGACGGCTCTCCCATTGAC
chain 2: CCUAUUCUGG
chain 3: GUUACUUGCACG
guide: UUCAAGUAAUCCAGGAUAGGCU
modifications: chemistry not fully specified
Take B1: the “5-FU-induced myelosuppression (leukocyte counts, bone marrow cellularity)” value (670 pmol/20 g chimera i.v. daily for 3 days, 150 mg/kg 5-FU on day 2) was “significantly ameliorated myelosuppression”. Besides, the “5-FU-induced myelosuppression (WBC, RBC, PLT), chimera mixed with 5-FU” value (150 mg/kg 5-FU with 2 nmol/20 g chimera i.v. at same time, 5 and 10 days) is listed as “protects mice against 5-FU-induced myelosuppression”. Besides, where the note is “5 days after 5-FU, chimera 670 pmol/20 g daily for 3 days”, the “prevention of 5-FU-induced reduction in the LSK population” value is given as “largely prevented”. For the same molecule, the “protection of LSK from 5-FU-induced apoptosis” value (5 days after 5-FU, chimera treatment) is given as “specifically protected”. For the same molecule, the “5-FU-induced Bak elevation in LSK cells” value (mouse, in vivo) is “significantly diminished”.

The values are drawn from US20200171068A1, “COMPOSITIONS COMPRISING APTAMERS AND NUCLEIC ACID PAYLOADS AND METHODS OF USING THE SAME” (Children's National Medical Center, priority 2017, published 2020).
